We go through one molecule from publication PMC9964254, “Caspase Inhibition Modulates Monocyte-Derived Macrophage Polarization in Damaged Tissues” (International Journal of Molecular Sciences, 2023).

In this experiment the target is T1, p47^PHOX (83-390) (UniProt P14598 83-390).
T1 construct: p47^PHOX residues 83-390 (the first 82 amino acids deleted from the GST-p47^PHOX construct); Made from the GST-p47^PHOX construct (pGEX-6P-3); also called truncated p47^PHOX; p47^PHOX truncated at position 82; source: E. coli (BL21), purified with glutathione sepharose beads
T1 sequence (looked up): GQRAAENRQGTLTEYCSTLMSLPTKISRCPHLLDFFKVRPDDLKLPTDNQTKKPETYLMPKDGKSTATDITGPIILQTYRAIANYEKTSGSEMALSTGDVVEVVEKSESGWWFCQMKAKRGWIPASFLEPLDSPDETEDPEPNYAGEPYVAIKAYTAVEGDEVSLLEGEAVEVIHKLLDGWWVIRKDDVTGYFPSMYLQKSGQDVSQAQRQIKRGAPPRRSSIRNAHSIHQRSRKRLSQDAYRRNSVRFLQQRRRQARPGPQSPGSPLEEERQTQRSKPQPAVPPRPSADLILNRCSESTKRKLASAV
Briefly: pull-down; 214 nM p47^PHOX proteins with 286 nM GST or GST-p22^PHOX (132-195), 30 min at 4 °C in PBS pH 7.4, 0.1% Triton X-100; glutathione sepharose beads 1 h at 4 °C, eluted with 10 mM glutathione, immunoblot with anti-p47^PHOX. The conditions noted are these: both partners purified. On the technique in general: In western blotting, separated proteins are transferred to a membrane and probed.

B1: GST-p22^PHOX (132-195) (domain or fragment, UniProt P13498 132-195, looked up)
chain: TPIEPKPRERPQIGGTIKQPPSNPPPRPPAEARKKPSEEEAAVAAGGPPGGPQVNPIPVTDEVV
notes: p22^PHOX residues 132-195
In the case of B1, the binding result is listed as “binds”.
